Source: article PMC6706414

Target: Mimic of H2B ubiquitinated nucleosome core particle with H3K36M (ubiquitin fused to H2A R17, H2B, H3K36M, H4, 149 bp 601 DNA) (S. cerevisiae | Xenopus laevis) (UniProt P0CG63)
Test: native gel or EMSA; native PAGE; NCPs and Set2 incubated for 1 h on ice in 25 mM HEPES, pH 7.5, 50 mM NaCl, 1 mM DTT, 160 μm SAM

Sequence of UniProt P0CG63 (P0CG63 whole entry, looked up, the tested form may be a part): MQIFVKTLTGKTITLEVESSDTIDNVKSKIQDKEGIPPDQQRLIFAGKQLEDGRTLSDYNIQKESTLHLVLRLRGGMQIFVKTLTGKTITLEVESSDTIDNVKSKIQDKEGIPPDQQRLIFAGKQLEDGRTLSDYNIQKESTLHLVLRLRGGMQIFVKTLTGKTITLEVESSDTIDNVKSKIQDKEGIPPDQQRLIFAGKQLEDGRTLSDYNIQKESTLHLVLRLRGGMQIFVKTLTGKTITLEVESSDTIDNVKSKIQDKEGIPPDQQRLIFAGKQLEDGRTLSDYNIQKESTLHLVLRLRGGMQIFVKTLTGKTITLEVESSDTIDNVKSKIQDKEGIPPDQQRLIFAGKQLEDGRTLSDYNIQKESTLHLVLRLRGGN

percent of the NCP band shifted at twofold excess of Set2: 50%
Substance: Chaetomium thermophilum Set2 methyltransferase, full-length (enzyme)
